Test results as given in patent publication US20220089761A1.

Target: CD20 receptor on WIL2-S cell line (human) (UniProt P11836)
Assay: flow cytometry on WIL2-S cells, detection with anti-human Fc-PE

Chain of UniProt P11836 (P11836 whole entry): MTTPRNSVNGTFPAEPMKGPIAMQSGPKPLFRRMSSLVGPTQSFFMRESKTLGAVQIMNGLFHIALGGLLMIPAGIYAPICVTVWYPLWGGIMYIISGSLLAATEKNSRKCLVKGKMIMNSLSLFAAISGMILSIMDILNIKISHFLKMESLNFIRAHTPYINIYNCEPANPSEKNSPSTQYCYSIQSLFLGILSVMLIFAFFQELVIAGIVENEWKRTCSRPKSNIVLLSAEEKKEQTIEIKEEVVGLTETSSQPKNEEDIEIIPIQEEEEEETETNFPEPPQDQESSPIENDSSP

EC50 (read off the curve): 1 µg/mL
Substance: MabThera (Rituximab) (antibody)
